Values belong to the binder of their own block, whether it stands above or below them.
Biological target: T1, β-1,3-glucanase (Hevea brasiliensis (endogenous in latex …, UniProt P52407 37-356))
T1 construct: β-1,3-glucanase of the lutoids (B-serum) of Hevea brasiliensis latex; two bands of about 35.5 and 41 kDa, both recognised by anti-glucanase and identified as β-1,3-glucanase by MALDI TOF MS; The preparation holds two forms (35.5 and 41 kDa); source: purified from B-serum of rubber tree latex (0-65% (NH4)2SO4, CM Sepharose Fast Flow); also unpurified in B-serum
Test: SPR; Biacore 3000, 25 °C; β-1,3-glucanase amine-coupled to a CM5 chip (5000 RU); analytes flowed in HBS-EP pH 7.4 at 30 μL/min; multi-cycle kinetics, 1:1 Langmuir fit; apparent constants
Conditions: both partners purified

T1 sequence (P52407 37-356): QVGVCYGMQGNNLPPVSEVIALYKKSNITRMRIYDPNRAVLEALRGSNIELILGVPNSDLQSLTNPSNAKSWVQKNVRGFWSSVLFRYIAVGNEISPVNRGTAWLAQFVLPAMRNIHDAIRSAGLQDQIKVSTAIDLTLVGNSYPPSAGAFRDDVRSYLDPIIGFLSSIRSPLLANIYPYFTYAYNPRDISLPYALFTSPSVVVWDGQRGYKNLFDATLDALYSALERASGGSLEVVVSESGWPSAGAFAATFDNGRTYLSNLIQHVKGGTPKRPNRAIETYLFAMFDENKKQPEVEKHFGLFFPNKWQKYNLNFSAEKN

Kd: 87.9 µM
B1: hevein (natural protein, UniProt P02877 18-60, looked up)
chain: EQCGRQAGGKLCPNNLCCSQWGWCGSTDEYCSPDHNCQSNCKD
notes: hevein, the N-terminal part split from pro-hevein, Hevea brasiliensis; runs at 10 kDa in Tricine-SDS-PAGE; source: purified from B-serum of rubber tree latex (85-95% (NH4)2SO4, Sephacryl S-200HR); also unpurified in B-serum

Kd: 231 µM
B2: pro-hevein (natural protein, UniProt P02877 18-204, looked up)
chain: EQCGRQAGGKLCPNNLCCSQWGWCGSTDEYCSPDHNCQSNCKDSGEGVGGGSASNVLATYHLYNSQDHGWDLNAASAYCSTWDANKPYSWRSKYGWTAFCGPVGAHGQSSCGKCLSVTNTGTGAKTTVRIVDQCSNGGLDLDVNVFRQLDTDGKGYERGHITVNYQFVDCGDSFNPLFSVMKSSVIN
notes: source: purified from B-serum of rubber tree latex (Sephacryl S-200HR); also unpurified in B-serum
